Consider five molecules from US20040001842A1.

Assay [1] deals with human CCK-B/gastrin receptor (human) (UniProt P32239). In words: 125I-labelled serum injected into nude mice with C170HM2 liver xenografts, CPM/g.
Assay [2] deals with CCK-B/gastrin receptor on AR42J cells (rat pancreatic adenocarcinoma) (rat) (UniProt P30553). In words: radioligand inhibition on AR42J cells, GnRH against 125I-hG17.
Assay [3] has as its target Affinity purified rabbit anti-GRE1 antibodies. In words: inhibition ELISA, peptide in solution against GRE1-Ser-BSA on the plate. Background: An ELISA detects its analyte on a solid surface through an enzyme-linked reagent.
For assay [4] the target is unchanged. In words: inhibition ELISA, mixture of GRE1 EPT and Ser spacer in solution against GRE1-Ser-BSA on the plate.
In assay [5] the target is affinity purified rabbit Anti-GRE11 antibodies. As to the kind of experiment: quantitative immunofluorescence on H69 cells, peptide as inhibitor, relative to GnRH.
For assay [6] the target is unchanged. In words: quantitative immunofluorescence on H69 cells, 1:1 mixture of GRE1 and GRE6 as inhibitor, relative to GnRH.

Sequence of UniProt P30553 (P30553 whole entry): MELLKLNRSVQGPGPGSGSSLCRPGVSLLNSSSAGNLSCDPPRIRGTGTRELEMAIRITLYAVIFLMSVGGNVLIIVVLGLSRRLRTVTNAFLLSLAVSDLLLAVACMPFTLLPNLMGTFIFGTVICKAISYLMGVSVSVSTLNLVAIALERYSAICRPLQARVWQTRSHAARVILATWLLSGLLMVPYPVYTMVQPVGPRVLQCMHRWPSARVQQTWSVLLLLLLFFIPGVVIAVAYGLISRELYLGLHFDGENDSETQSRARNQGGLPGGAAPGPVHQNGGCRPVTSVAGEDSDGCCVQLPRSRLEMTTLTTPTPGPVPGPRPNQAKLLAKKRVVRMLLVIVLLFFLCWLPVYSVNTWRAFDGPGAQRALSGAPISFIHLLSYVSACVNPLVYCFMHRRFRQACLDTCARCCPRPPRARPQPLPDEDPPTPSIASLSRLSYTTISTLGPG

In the case of normal rabbit serum, the liver tumor/liver ratio of radiolabel in assay [1] turned out to be 1. For “gonadotropin releasing hormone (from UniProt P01148 24-33) (peptide)”, in assay [2], the % inhibition of 125I-hG17 binding is 6%. The % inhibition is how much of the control response was suppressed. As for KLNRSVQGTGPGPGASL [GRE1 EPT peptide], the % inhibition in assay [3] and in assay [4] was 60% each time. Also, the values for the percent inhibition of antibody binding in assay [5] and in assay [6] were 57% and 49%, respectively. With MELLKLNRSVQGTGPGPGASLC [GRE11 peptide], the percent inhibition of antibody binding in assay [5] is 84%. The molecule MELLKLNRSVQGC [GRE6 peptide] yielded a percent inhibition of antibody binding in assay [5] of 4%.
